# Measurements: paper PMC7175280
# Target: Mus musculus inward rectifier K+ (Kir) channel 3.1 - Paraburkholderia xenovorans KirBac1.3 chimera (Mus musculus | Paraburkholderia xenovorans (Burkholderia xenovorans LB400)) (UniProt P63250)
# Assay: SEC; HiLoad 16/600 Superdex 200 in 20 mM HEPES pH 7.5, 150 mM KCl, 5 mM DDM, 2 mM DTT, 1 mM EDTA, 0.02% NaN3; protein loaded at ~3 mg/mL; tetramer fractions collected
substance,measurement,value
Mus musculus inward rectifier K+ (Kir) channel 3.1 - Paraburkholderia xenovorans KirBac1.3 chimera (from UniProt P63250 181-371; P63250 181-371),stoichiometry N,4
